Data reported in patent publication US20210095036A1 (University of Pennsylvania, published 2021).
Numbering of substitutions follows the chain as printed.

T1: GFRα4 isoform a (GFRα4a), Fc fusion with 6 His (human)
T1 construct: the entry holds the whole fusion; also called GFR4α4a; immobilized GFRα4 isoform a
T1 chain: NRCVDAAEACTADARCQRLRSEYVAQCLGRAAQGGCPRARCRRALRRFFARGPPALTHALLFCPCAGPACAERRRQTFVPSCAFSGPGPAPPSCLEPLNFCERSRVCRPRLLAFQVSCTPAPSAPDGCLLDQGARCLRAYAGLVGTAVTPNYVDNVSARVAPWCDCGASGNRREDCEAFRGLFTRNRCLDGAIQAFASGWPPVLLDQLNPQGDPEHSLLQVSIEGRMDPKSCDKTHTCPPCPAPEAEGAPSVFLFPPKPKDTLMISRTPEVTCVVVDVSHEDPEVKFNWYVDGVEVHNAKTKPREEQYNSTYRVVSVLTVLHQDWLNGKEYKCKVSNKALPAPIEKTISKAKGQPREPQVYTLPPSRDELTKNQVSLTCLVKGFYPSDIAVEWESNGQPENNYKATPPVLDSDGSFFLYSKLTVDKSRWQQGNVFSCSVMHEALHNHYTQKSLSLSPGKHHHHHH

B1: 12.H2m1.L1m1 (scFv)
scFv: QFVLTQSPSASASLGASVKLTCTLSSAHKTYTIDWYQQQPEKGPRYLMQVKSDGSYTKGTGVPDRFSGSSSGADRYLTISSLQSEDEADYYCGADDNGGYVFGGGTQLTVTGGGSSRSSSSGGGGSGGGGEQSVKESGGGLVQPGGSLRLSCAASGFTLSRHALTWVRQAPGKGLEWIGAIDNAGTTYYASWAKSRFTISRNTDLHTVYLQMNSLRAEDTAVYFCARVFYDINSGYYLDGMDLWGPGTLVTVSS
notes: pIII not in the entry; order Vλ-linker-VH; The printed entry has an E before QSVKE of the VH; also called scFv 12
B2: 4.H1m1.L3m1 (scFv)
scFv: QFVLTQPASVSGSPGQSITISCTLSSAHKTYTIDWYQQHPGKAPKYLMQVKSDGSYTKGTGVPNRFSGSSSGADRYLTISGLQAEDEADYVCGADDNGGYVFGGGTQLTVTGGGSSRSSSSGGGGSGGGGQQSVKESGPGLVKPSETLSLTCAVSGFSLSRHALTWVRQPPGKGLEWIGAIDNAGTTYYASWAKSRVTISRNTDLHTVSLKLSSVTAADTAVYFCARVFYDINSGYYLDGMDLWGPGTLVTVSS
notes: pIII not in the entry; order Vλ-linker-VH; also called scFv 4
B3: 24.H2.L3m1 (scFv)
scFv: QFVLTQPASVSGSPGQSITISCTLSSAHKTYTIDWYQQHPGKAPKYLMQVKSDGSYTKGTGVPNRFSGSSSGADRYLTISGLQAEDEADYVCGADDNGGYVFGGGTQLTVTGGGSSRSSSSGGGGSGGGGEVQLVESGGGLVQPGGSLRLSCAASGFTFSRHALTWVRQAPGKGLEWVSAIDNAGTTYYASWAKSRFTISRDNAKNSLYLQMNSLRAEDTAVYYCARVFYDINSGYYLDGMDLWGPGTLVTVSS
notes: pIII not in the entry; order Vλ-linker-VH; also called scFv 24
B4: 8.H2m1.L2m1 (scFv)
scFv: QFVLTQPPSASGTPGQRVTISCTLSSAHKTYTIDWYQQLPGTAPKLLIYVKSDGSYTKGTGVPDRFSGSSSGADRYLAISGLQSEDEADYYCGADDNGGYVFGGGTQLTVTGGGSSRSSSSGGGGSGGGGEQSVKESGGGLVQPGGSLRLSCAASGFTLSRHALTWVRQAPGKGLEWIGAIDNAGTTYYASWAKSRFTISRNTDLHTVYLQMNSLRAEDTAVYFCARVFYDINSGYYLDGMDLWGPGTLVTVSS
notes: pIII not in the entry; order Vλ-linker-VH; The printed entry has an E before QSVKE of the VH; also called scFv 8
B5: 25.H1.L1m3 (scFv)
scFv: QLVLTQSPSASASLGASVKLTCTLSSAHKTYTIDWYQQQPEKGPRYLMQVKSDGSYTKGTGVPDRFSGSSSGADRYLTISSLQSEDEADYYCGADDNGGYVFGGGTQLTVLGGGSSRSSSSGGGGSGGGGQVQLQESGPGLVKPSETLSLTCAVSGYSISRHALTWIRQPPGKGLEWIGAIDNAGTTYYASWAKSRVTISVDTSKNQFSLKLSSVTAADTAVYYCARVFYDINSGYYLDGMDLWGPGTLVTVSS
notes: pIII not in the entry; order Vλ-linker-VH; also called scFv 25
B6: 26.H1.L1m4 (scFv)
scFv: B5 scFv with D34A, Y36H
notes: pIII not in the entry; order Vλ-linker-VH; also called scFv 26
B7: 22.H1.L1m2 (scFv)
scFv: B5 scFv with L2F, Y36H, V62I, D74E
notes: pIII not in the entry; order Vλ-linker-VH; also called scFv 22
B8: 14.H1.L1m1 (scFv)
scFv: B5 scFv with L2F, L111T
notes: pIII not in the entry; order Vλ-linker-VH; also called scFv 14
B9: 28.H1.L3m5 (scFv)
scFv: QSALTQPASVSGSPGQSITISCTGTSAHKTYTVSWYQQHPGKAPKLMIYVKSDGSYTKGTGVPNRFSGSSSGADRYLTISGLQAEDEADYYCGADDNGGYVFGGGTQLTVLGGGSSRSSSSGGGGSGGGGQVQLQESGPGLVKPSETLSLTCAVSGYSISRHALTWIRQPPGKGLEWIGAIDNAGTTYYASWAKSRVTISVDTSKNQFSLKLSSVTAADTAVYYCARVFYDINSGYYLDGMDLWGPGTLVTVSS
notes: pIII not in the entry; order Vλ-linker-VH; also called scFv 28
B10: 18.H1.L3m3 (scFv)
scFv: B9 scFv with V33I, S34D, P63S, S70K, A73N, D74T, R75A, Y76S
notes: pIII not in the entry; order Vλ-linker-VH; also called scFv 18
B11: 27.H1.L3m4 (scFv)
scFv: B9 scFv with L46Y, M47L, I48M, Y49Q
notes: pIII not in the entry; order Vλ-linker-VH; also called scFv 27
B12: 10.H2.L1m1 (scFv)
scFv: QFVLTQSPSASASLGASVKLTCTLSSAHKTYTIDWYQQQPEKGPRYLMQVKSDGSYTKGTGVPDRFSGSSSGADRYLTISSLQSEDEADYYCGADDNGGYVFGGGTQLTVTGGGSSRSSSSGGGGSGGGGEVQLVESGGGLVQPGGSLRLSCAASGFTFSRHALTWVRQAPGKGLEWVSAIDNAGTTYYASWAKSRFTISRDNAKNSLYLQMNSLRAEDTAVYYCARVFYDINSGYYLDGMDLWGPGTLVTVSS
notes: pIII not in the entry; order Vλ-linker-VH; also called scFv 10
B13: 29.H2.L1m3 (scFv)
scFv: B12 scFv with F2L
notes: pIII not in the entry; order Vλ-linker-VH; The printed VL ends TVT; also called scFv 29
B14: 21.H2.L1m2 (scFv)
scFv: B12 scFv with Y36H, V62I, D74E, T111L
notes: pIII not in the entry; order Vλ-linker-VH; also called scFv 21
B15: 16.H1m1.L1m1 (scFv)
scFv: QFVLTQSPSASASLGASVKLTCTLSSAHKTYTIDWYQQQPEKGPRYLMQVKSDGSYTKGTGVPDRFSGSSSGADRYLTISSLQSEDEADYYCGADDNGGYVFGGGTQLTVTGGGSSRSSSSGGGGSGGGGQQSVKESGPGLVKPSETLSLTCAVSGFSLSRHALTWVRQPPGKGLEWIGAIDNAGTTYYASWAKSRVTISRNTDLHTVSLKLSSVTAADTAVYFCARVFYDINSGYYLDGMDLWGPGTLVTVSS
notes: pIII not in the entry; order Vλ-linker-VH; also called scFv 16
B16: 19.H2.L2m2 (scFv)
scFv: QFVLTQPPSASGTPGQRVTISCTLSSAHKTYTIDWYQQLPGTAPKLLIYVKSDGSYTKGTGVPDRFSGSSSGADASLAISGLQSEDEADYYCGADDNGGYVFGGGTQLTVLGGGSSRSSSSGGGGSGGGGEVQLVESGGGLVQPGGSLRLSCAASGFTFSRHALTWVRQAPGKGLEWVSAIDNAGTTYYASWAKSRFTISRDNAKNSLYLQMNSLRAEDTAVYYCARVFYDINSGYYLDGMDLWGPGTLVTVSS
notes: pIII not in the entry; order Vλ-linker-VH; also called scFv 19
B17: 20.H2.L2m3 (scFv)
scFv: B16 scFv with F2S, S70K, A73T, D74S
notes: pIII not in the entry; order Vλ-linker-VH; also called scFv 20
B18: 6.H2.L2m1 (scFv)
scFv: B16 scFv with A75R, S76Y, L111T
notes: pIII not in the entry; order Vλ-linker-VH; also called scFv 6
B19: 17.H1.L3m2 (scFv)
scFv: B9 scFv with S2F, A3V, G24L, T25S, V33I, S34D, Y49Q, P63S
notes: pIII not in the entry; order Vλ-linker-VH; also called scFv 17
B20: 13.H1.L1 (scFv)
scFv: B5 scFv with D34A, Y36H, Q49K, T57S, T60D, V62I, D74E, Q107K
notes: pIII not in the entry; order Vλ-linker-VH; also called scFv 13

Molecular target: T1, GFRα4 isoform a (GFRα4a), Fc fusion …
Assay: phage ELISA, immobilized GFRα4a; first token of the cell
Description: (§1) To perform these ELISAs, the GFRα4a isoform comprising a portion of GFRα4a (Asn24 -Ser245, UniProt accession #Q9GZZ7-2) was used, followed by a Factor Xa cleavage site/linker, a portion of optimized IgG1 Fc domain (Pro100-Lys330), and 6 His residues for purification. The GFRα4b isoform comprised a portion of GFRα4b (Asn24-Va1274, UniProt #Q9GZZ7-1), followed by a TEV cleavage site linker, and a portion of human IgG1 Fc domain (Asp104-Lys330).

binding result | Binder
binds | B1
binds | B2
binds | B3
binds | B4
binds | B5
no binding | B6
no binding | B7
binds | B8
no binding | B9
no binding | B10
no binding | B11
binds | B12
binds | B13
no binding | B14
binds | B15
no binding | B16
no binding | B17
binds | B18

The binders below were run against T2, GFRα4 isoform b (GFRα4b), Fc fusion (human) (assay: phage ELISA, immobilized GFRα4b; second token of the cell).
T2 construct: the entry holds the whole fusion; also called GFR4α4b; GFRα4-Fc
Description: as §1

binding result | Binder
binds | B1
binds | B2
binds | B3
binds | B4
binds | B5
no binding | B6
no binding | B7
binds | B8
no binding | B9
binds | B19
no binding | B10
no binding | B11
binds | B12
binds | B13
no binding | B14
binds | B15
no binding | B16
no binding | B17
binds | B18

Molecular target: T1, GFRα4 isoform a (GFRα4a), Fc fusion …
Assay: phage ELISA, immobilized GFRα4a; first token of the cell (GFRα4b: NT)
Description: as §1

binding result | Binder
no binding | B20
